From the RNAGym collection of RNA variant scans (doi:10.1073/pnas.2313332121)

B1: TPR t1 (parent)
chain: GACCAAUCUGCCCUCAGAGCUCGAGAACAUCUUCGGAUGCAGAGGAGGCAGGCUUCGGUGGCGCGAUAGCGCCAACGUCCUCAACCUCCAAUGCAUCCCACCACAUGAUGAUGCCUGAAGAGCCUUGGUUUUUUG

Variants of: B1
Assay: polymerase ribozyme fitness, log enrichment relative to wild type (log ratio); higher = more active; in vitro selection for triplet polymerase activity
Summary of the method: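 PCR was used to build mutant libraries for each subunit of a heterodimeric triplet polymerase ribozyme, which were then transcribed. A single in vitro selection round, in triplicate, used a frozen incubation at −7 °C and recovered extended constructs by gel excision, streptavidin beads and RT-PCR. Fitness is the logarithm of genotype enrichment relative to wild-type enrichment, averaged over replicates with inverse-variance weights. The logarithm is base 2, and after Illumina sequencing only genotypes with ≥10 input reads and ≥1 read per output were kept.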

Row | Variant | polymerase ribozyme fitness (log ratio)
1 | C72A A118C | -2.72
2 | C72A A121C | 1.46
3 | C72A A121G | 1.6
4 | C72A A121U | 2.22
5 | C72A C73U | -0.581
6 | C72A C79A | -0.505
7 | C72A C80U C88U | -0.793
8 | C72A C82A U96G A100U C115A | -3.23
9 | C72A C82G | -0.603
10 | C72A C85A A121C | 1.56
11 | C72A C85U A90C | -1.5
12 | C72A C86G C89U | -1.07
13 | C72A C86U | -0.17
14 | C72A C86U A108U | -5.12
15 | C72A C89A C124G | 0.634
16 | C72A C94U G120C | 1.05
17 | C72A C102U | -1.48
18 | C72A C123A | 0.479
19 | C72A C123U | 1.5
20 | C72A C124U U131A | 1.33
21 | C72A G93C C114U C115U | -6.52
22 | C72A G110A U131A | -0.37
23 | C72A G110U | -1.54
24 | C72A G120A | 1.06

Row | Variant | polymerase ribozyme fitness (log ratio)
25 | C72A G135U | -0.828
26 | C72A U78A C124A U132C U133A | 1.3
27 | C72A U78G | -1.71
28 | C72A U96A U109G | -6.14
29 | C72A U129A | -1.32
30 | C72A U131A G135U | 0.0704
31 | C72A U132A | -0.00723
32 | C72G A83G | -0.0856
33 | C72G A90G G110U G135C | -2
34 | C72G A95U | -1.07
35 | C72G A103U | -5.45
36 | C72G A121C | 1.48
37 | C72G C73U C86G | -5.02
38 | C72G C79G | -1.67
39 | C72G C82G A105C | -4.16
40 | C72G C85A | -1.82
41 | C72G C85G | -1.98
42 | C72G C85U C86U | -2.99
43 | C72G C86A G93C C104G A108U U109G A118G | -6.21
44 | C72G C86A U87A | -4.6
45 | C72G C86G U92A A111G G128U U132C | -6.17
46 | C72G C88A C94U G120C | -1.57
47 | C72G C88G C115U | -3.24
48 | C72G C88U U92A | -3.52

Row | Variant | polymerase ribozyme fitness (log ratio)
49 | C72G C97U G122A | -1.57
50 | C72G C98U A105C | -4.92
51 | C72G C101G | -1.33
52 | C72G C102U | -1.53
53 | C72G C104A U116A | -5.17
54 | C72G C104U | -0.348
55 | C72G C123A | -0.175
56 | C72G G110A | -1.14
57 | C72G G120C G128C | -3.07
58 | C72G G135C | -1.17
59 | C72G G135U | -0.702
60 | C72G U78A U109A G128A | -5.92
61 | C72G U92A U126G U129A | -6.86
62 | C72G U129A | -1.02
63 | C72G U129G | -1.34
64 | C72G U131A | -0.469
65 | C72G U132C | -0.428
66 | C72G U133G | 0.34
67 | C72U A74C | 0.54
68 | C72U A84G C114A C115A | -6.51
69 | C72U A90C | -1.33
70 | C72U A91U | -1.73
71 | C72U A95G C98U G113A A118G | -4.04
72 | C72U A105U | -2.43

Row | Variant | polymerase ribozyme fitness (log ratio)
73 | C72U A118G | -0.902
74 | C72U C76A C88A U96A | -3.05
75 | C72U C76U A121C | 1.1
76 | C72U C82G G113U | -4.51
77 | C72U C85U C104G U112A G122U U133G | -6.97
78 | C72U C86A | -0.584
79 | C72U C86U G117A | -2.26
80 | C72U C89A | -1.22
81 | C72U C89G G113C | -3.26
82 | C72U C94G | -1.95
83 | C72U C94G A95G C123U | -0.867
84 | C72U C123A U126G | -1.44
85 | C72U C123G | 0.829
86 | C72U C124G | 1.47
87 | C72U G77U C104A | -2.21
88 | C72U G93A | -0.542
89 | C72U G93U | -1.56
90 | C72U G93U A111G | -2.76
91 | C72U G113A | -1.48
92 | C72U G113C C123G | -1.69
93 | C72U G117C | -2.69
94 | C72U G117C U125G | -5.63
95 | C72U G122U | 0.145
96 | C72U U78C C94U | -0.922

Row | Variant | polymerase ribozyme fitness (log ratio)
97 | C72U U78C C97U | -1.02
98 | C72U U78C G117U G122A U130G | -2.87
99 | C72U U78G | -1.7
100 | C72U U112A | 0.821
101 | C72U U112C | 1.19
102 | C72U U132A | -0.0764
103 | C72U U133C | 0.275
104 | C73A A74G | -0.555
105 | C73A A111C | 0.669
106 | C73A A118G | 0.164
107 | C73A C88U C99A A100C | -3.87
108 | C73A C98A | -4.94
109 | C73A C101A | -1
110 | C73A C102A | -2.07
111 | C73A C102U U125G | -2.45
112 | C73A C104A A108G U112A A118G G122U | -5.56
113 | C73A C104A U116G C124A | -1.19
114 | C73A C123U | 1.47
115 | C73A G77A | -0.332
116 | C73A G93C | -0.962
117 | C73A G122A | -0.64
118 | C73A G127U | -0.602
119 | C73A G128A | -2.12
120 | C73A U78C | -0.268

Row | Variant | polymerase ribozyme fitness (log ratio)
121 | C73A U78C A90C A91U U109G | -7.04
122 | C73A U81G C88A U112G C115A U125A | -5.14
123 | C73A U109C | -2.34
124 | C73A U132A | 0.117
125 | C73G A90C | -2.17
126 | C73G A90G G113U A118C | -5.26
127 | C73G C80U C123G | -0.835
128 | C73G C82U | -0.556
129 | C73G C94A | -2.58
130 | C73G C94G | -1.94
131 | C73G C97G C114A A121G | -5.74
132 | C73G C97U A118U | -1.07
133 | C73G C115A | -1.04
134 | C73G C123U | 0.00475
135 | C73G G113U | -2.74
136 | C73G G120C | 0.461
137 | C73G U81A C85U C115U | -5.48
138 | C73G U87A G122A | -4.5
139 | C73G U92A | -5.66
140 | C73G U96G C115G | -3.54
141 | C73U A90G C124A | 1.85
142 | C73U A91C | -1.74
143 | C73U A100U G110A | -1.9
144 | C73U A103G | -4.17

Row | Variant | polymerase ribozyme fitness (log ratio)
145 | C73U A119G | 1.13
146 | C73U A119U | -0.348
147 | C73U C76A A103U G120C | -5.45
148 | C73U C79G G113U | -5.88
149 | C73U C80U | -0.17
150 | C73U C82U A91U A100U | -3.21
151 | C73U C85G | -2.85
152 | C73U C85U | -0.444
153 | C73U C86A C97U C102U | -4.11
154 | C73U C94U G113U | -3.64
155 | C73U C102A | -1.58
156 | C73U C102U U131C | -1.19
157 | C73U C115A | -0.495
158 | C73U C115G U132A | -1.49
159 | C73U G93C C124U U125C | -1.39
160 | C73U G107A A108G G120A C124A | -3.12
161 | C73U G113A G117A | -6.9
162 | C73U G117C | -2.95
163 | C73U G117U | -1.43
164 | C73U G120C | 1.2
165 | C73U U81A U116G U125A | -4.02
166 | C73U U87A C115A | -0.423
167 | C73U U96A A108G C114A | -5.25
